In US20260242478A1 (published 2026):
Where no end group is shown, it is not given here.

B1: Phage-2508 (peptide)
peptide: HPSWCTPAWMCQGF
modifications: cysteine pairing not given here; also: fused to phage pIII, linker and fusion site not given here
notes: not shown: fused to pIII of the bacteriophage
B2: Phage-2511 (peptide)
peptide: LVKLCSPEWMCVGM
modifications: cysteine pairing not given here; also: fused to phage pIII, linker and fusion site not given here
notes: as for B1
B3: Phage-2509 (peptide)
peptide: TYKMCIPAWKCAVS
modifications: cysteine pairing not given here; also: fused to phage pIII, linker and fusion site not given here
notes: as for B1
B4: Phage-2510 (peptide)
peptide: EVKWCIPDWMCSVI
modifications: cysteine pairing not given here; also: fused to phage pIII, linker and fusion site not given here
notes: as for B1

Each binder was assayed against T1, PSMA Fab (006 PSMA Fab) (assay: clonal phage ELISA; biotinylated PSMA Fab on neutravidin plate, blocking buffer alone; anti-M13 HRP detection;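 also: crude clonal phage supernatants added without washing to wells pretreated with blocking buffer with or without PSMA antigen, short incubation, then washed before detecting bound phage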).
T1 construct: also called Anti-PSMA Fab; anti-PSMA Fab
Description: (§1) Clonal phage were harvested as crude supernatants and screened via standard ELISAs. […] Prior to the addition of clonal phage. wells were incubated with blocking buffer and PSMA antigen or blocking buffer alone. Without washing or aspirating, clonal phage supernatants were then added to the wells and incubated for a short time. Wells were then washed followed by detection of bound phage using a horse radish conjugated anti-M13 antibody.

Binder	Phage binding ELISA signal, Anti-PSMA Fab
AVKWCTPAWMCSGF (Row prints A V K W - T - A - - - S - -) [Phage-2524]	1.18
IDPRCIPEWMCIGY (Row prints - D P R - I - E - - - I - Y) [Phage-2518]	1.18
VPIWCTPEWMCSGF (Row prints V P I W - T - E - - - S - -) [Phage-2519]	1.18
VPKWCTPAWMCTGL (Row prints V P K W - T - A - - - T - L) [Phage-2516]	1.18
LGKMCIPLWMCDGL (Row prints L G K M - I - L - - - D - L) [Phage-2512]	1.19
VDNWCTPMWMCAWI (Row prints V D N W - T - M - - - - W I) [Phage-2517]	1.18
PIPLCIPLWMCEER (Row prints P I P - - I - L - - - E E R) [Phage-2520]	1.18
LTQWCIPQWMCEGS (Row prints L T Q W - I - Q - - - E - S) [Phage-2515]	1.18
DNKWCIPEWMCFAS (Row prints D N K W - I - E - - - F A S) [Phage-2521]	1.18
SLELCRPEWMCVGF (Row prints S L E - - R - E - - - V - -) [Phage-2513]	1.19
HERSCIPAWMCWRQ (Row prints H E R S - I - A - - - W R Q) [Phage-2522]	1.18
EIKWCTPAWMCAIN (Row prints E I K W - T - A - - - - I N) [Phage-2514]	1.18
IVRWCTPEWMCVGF (Row prints - V R W - T - E - - - V - -) [Phage-2523]	1.18

What follows are binders tested against T2, 006 PSMA Fab (biotinylated (site not given)) (assay: clonal phage ELISA on plate-bound PSMA Fab, competitor: PSMA antigen pre-incubated in the wells).
T2 construct: Biotinylated PSMA Fab captured on neutravidin coated plates for the clonal phage ELISA; also called Anti-PSMA Fab

Binder	Phage binding ELISA signal, Anti-PSMA Fab in presence of PSMA
B1	0.0911
B2	0.0667
B3	0.0792
B4	0.0782

What follows are binders tested against T2, 006 PSMA Fab (assay: clonal phage ELISA, biotinylated PSMA Fab on neutravidin plate, anti-M13 HRP detection;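 also: crude clonal phage supernatants added to wells pretreated with blocking buffer either with or without PSMA antigen, bound phage read after washing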).
Description: as §1

Binder	Phage binding ELISA signal, Anti-PSMA Fab
B1	1.2
B2	1.19
B3	1.19
B4	1.19

Each binder was assayed against T1, PSMA Fab (006 PSMA Fab) (assay: clonal phage ELISA; biotinylated PSMA Fab on neutravidin plate, wells pre-incubated with PSMA antigen as competitor; anti-M13 HRP detection;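 also: crude clonal phage supernatants added to antigen-treated wells without a wash, incubated briefly, then bound phage read out via horse radish–conjugated anti-M13 antibody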).
Description: as §1

Binder	Phage binding ELISA signal, Anti-PSMA Fab in presence of PSMA antigen
AVKWCTPAWMCSGF (Row prints A V K W - T - A - - - S - -) [Phage-2524]	0.0682
IDPRCIPEWMCIGY (Row prints - D P R - I - E - - - I - Y) [Phage-2518]	0.0633
VPIWCTPEWMCSGF (Row prints V P I W - T - E - - - S - -) [Phage-2519]	0.0879
VPKWCTPAWMCTGL (Row prints V P K W - T - A - - - T - L) [Phage-2516]	0.0721
LGKMCIPLWMCDGL (Row prints L G K M - I - L - - - D - L) [Phage-2512]	0.0573
VDNWCTPMWMCAWI (Row prints V D N W - T - M - - - - W I) [Phage-2517]	0.109
PIPLCIPLWMCEER (Row prints P I P - - I - L - - - E E R) [Phage-2520]	0.0838
LTQWCIPQWMCEGS (Row prints L T Q W - I - Q - - - E - S) [Phage-2515]	0.0537
DNKWCIPEWMCFAS (Row prints D N K W - I - E - - - F A S) [Phage-2521]	0.0796
SLELCRPEWMCVGF (Row prints S L E - - R - E - - - V - -) [Phage-2513]	0.0955
HERSCIPAWMCWRQ (Row prints H E R S - I - A - - - W R Q) [Phage-2522]	0.0706
EIKWCTPAWMCAIN (Row prints E I K W - T - A - - - - I N) [Phage-2514]	0.0972
IVRWCTPEWMCVGF (Row prints - V R W - T - E - - - V - -) [Phage-2523]	0.0674
